# ± gives the uncertainty stated by the source.
# B1: Homeobox protein SIX3, residues 212 to 262; numbered along this chain, O95343 (parent)
# chain: CFKERTRSLLREWYLQDPYPNPSKKRELAQATGLTPTQVGNWFKNRRQRDR
# Variants of: B1
# Assay: abundance fitness (aPCA) (normalised: wild type 0, dead -1); higher = more abundant; growth selection in yeast, the domain comes from the species named
# Details: Homo sapiens
row,Variant,abundance fitness
1,CFKERTRSLLREWYLQDPYPNPSKQRELAQATGLTPTQVGNWFKNRRQRDR,-0.109 ± 0.11
2,CFKERTRSLLREWYLQDPYPNPSKLRELAQATGLTPTQVGNWFKNRRQRDR,-0.061 ± 0.063
3,CFKERTRSLLREWYLQDPYPNPSKVRELAQATGLTPTQVGNWFKNRRQRDR,-0.019 ± 0.044
4,CFKERTRSLLREWYLQDPYPNPSKPRELAQATGLTPTQVGNWFKNRRQRDR,-0.84 ± 0.067
5,CFKERTRSLLREWYLQDPYPNPSKCRELAQATGLTPTQVGNWFKNRRQRDR,-0.103 ± 0.097
6,CFKERTRSLLREWYLQDPYPNPSKYRELAQATGLTPTQVGNWFKNRRQRDR,-0.316 ± 0.1
7,CFKERTRSLLREWYLQDPYPNPSKMRELAQATGLTPTQVGNWFKNRRQRDR,0.004 ± 0.09
8,CFKERTRSLLREWYLQDPYPNPSKGRELAQATGLTPTQVGNWFKNRRQRDR,-0.579 ± 0.1
9,CFKERTRSLLREWYLQDPYPNPSKERELAQATGLTPTQVGNWFKNRRQRDR,0.008 ± 0.079
10,CFKERTRSLLREWYLQDPYPNPSKWRELAQATGLTPTQVGNWFKNRRQRDR,-0.334 ± 0.056
11,CFKERTRSLLREWYLQDPYPNPSKNRELAQATGLTPTQVGNWFKNRRQRDR,-0.344 ± 0.25
12,CFKERTRSLLREWYLQDPYPNPSKARELAQATGLTPTQVGNWFKNRRQRDR,-0.326 ± 0.057
13,CFKERTRSLLREWYLQDPYPNPSKDRELAQATGLTPTQVGNWFKNRRQRDR,-0.753 ± 0.062
14,CFKERTRSLLREWYLQDPYPNPSKTRELAQATGLTPTQVGNWFKNRRQRDR,0.133 ± 0.062
15,CFKERTRSLLREWYLQDPYPNPSKSRELAQATGLTPTQVGNWFKNRRQRDR,-0.478 ± 0.085
16,CFKERTRSLLREWYLQDPYPNPSKRRELAQATGLTPTQVGNWFKNRRQRDR,-0.177 ± 0.063
17,CFKERTRSLLREWYLQDPYPNPDKKRELAQATGLTPTQVGNWFKNRRQRDR,0.175 ± 0.064
18,CFKERTRSLLREWYLQDPYPNPYKKRELAQATGLTPTQVGNWFKNRRQRDR,-0.761 ± 0.23
19,CFKERTRSLLREWYLQDPYPNPCKKRELAQATGLTPTQVGNWFKNRRQRDR,-0.166 ± 0.17
20,CFKERTRSLLREWYLQDPYPNPTKKRELAQATGLTPTQVGNWFKNRRQRDR,-0.005 ± 0.075
21,CFKERTRSLLREWYLQDPYPNPMKKRELAQATGLTPTQVGNWFKNRRQRDR,-0.277 ± 0.14
22,CFKERTRSLLREWYLQDPYPNPLKKRELAQATGLTPTQVGNWFKNRRQRDR,-0.342 ± 0.059
23,CFKERTRSLLREWYLQDPYPNPQKKRELAQATGLTPTQVGNWFKNRRQRDR,-0.022 ± 0.11
24,CFKERTRSLLREWYLQDPYPNPKKKRELAQATGLTPTQVGNWFKNRRQRDR,-0.512 ± 0.19
25,CFKERTRSLLREWYLQDPYPNPEKKRELAQATGLTPTQVGNWFKNRRQRDR,0.002 ± 0.08
26,CFKERTRSLLREWYLQDPYPNPFKKRELAQATGLTPTQVGNWFKNRRQRDR,-0.343 ± 0.11

row,Variant,abundance fitness
1,CFKERTRSLLREWYLQDPYPNPPKKRELAQATGLTPTQVGNWFKNRRQRDR,-0.341 ± 0.12
2,CFKERTRSLLREWYLQDPYPNPVKKRELAQATGLTPTQVGNWFKNRRQRDR,-0.094 ± 0.064
3,CFKERTRSLLREWYLQDPYPNPHKKRELAQATGLTPTQVGNWFKNRRQRDR,-0.356 ± 0.059
4,CFKERTRSLLREWYLQDPYPNPRKKRELAQATGLTPTQVGNWFKNRRQRDR,-0.551 ± 0.074
5,CFKERTRSLLREWYLQDPYPNPAKKRELAQATGLTPTQVGNWFKNRRQRDR,0.072 ± 0.076
6,CFKERTRSLLREWYLQDPYPNPGKKRELAQATGLTPTQVGNWFKNRRQRDR,-0.079 ± 0.056
7,CFKERTRSLLREWYLQDPYPNPWKKRELAQATGLTPTQVGNWFKNRRQRDR,-0.729 ± 0.15
8,CFKERTRSLLREWYLQDPYPNPNKKRELAQATGLTPTQVGNWFKNRRQRDR,-0.249 ± 0.08
9,CFKERTRSLLREWYLQDPYPNPSRKRELAQATGLTPTQVGNWFKNRRQRDR,-0.137 ± 0.047
10,CFKERTRSLLREWYLQDPYPNPSIKRELAQATGLTPTQVGNWFKNRRQRDR,-0.072 ± 0.09
11,CFKERTRSLLREWYLQDPYPNPSVKRELAQATGLTPTQVGNWFKNRRQRDR,-0.101 ± 0.053
12,CFKERTRSLLREWYLQDPYPNPSCKRELAQATGLTPTQVGNWFKNRRQRDR,-0.399 ± 0.085
13,CFKERTRSLLREWYLQDPYPNPSLKRELAQATGLTPTQVGNWFKNRRQRDR,-0.366 ± 0.084
14,CFKERTRSLLREWYLQDPYPNPSQKRELAQATGLTPTQVGNWFKNRRQRDR,-0.112 ± 0.093
15,CFKERTRSLLREWYLQDPYPNPSEKRELAQATGLTPTQVGNWFKNRRQRDR,-0.364 ± 0.092
16,CFKERTRSLLREWYLQDPYPNPSSKRELAQATGLTPTQVGNWFKNRRQRDR,-0.193 ± 0.06
17,CFKERTRSLLREWYLQDPYPNPSHKRELAQATGLTPTQVGNWFKNRRQRDR,-0.219 ± 0.096
18,CFKERTRSLLREWYLQDPYPNPSWKRELAQATGLTPTQVGNWFKNRRQRDR,-0.896 ± 0.13
19,CFKERTRSLLREWYLQDPYPNPSYKRELAQATGLTPTQVGNWFKNRRQRDR,-0.709 ± 0.2
20,CFKERTRSLLREWYLQDPYPNPSMKRELAQATGLTPTQVGNWFKNRRQRDR,-0.246 ± 0.15
21,CFKERTRSLLREWYLQDPYPNPSTKRELAQATGLTPTQVGNWFKNRRQRDR,-0.097 ± 0.092
22,CFKERTRSLLREWYLQDPYPNPSPKRELAQATGLTPTQVGNWFKNRRQRDR,-0.924 ± 0.14
23,CFKERTRSLLREWYLQDPYPNPSFKRELAQATGLTPTQVGNWFKNRRQRDR,-0.672 ± 0.094
24,CFKERTRSLLREWYLQDPYPNPSAKRELAQATGLTPTQVGNWFKNRRQRDR,0.11 ± 0.074
25,CFKERTRSLLREWYLQDPYPNPSGKRELAQATGLTPTQVGNWFKNRRQRDR,-0.417 ± 0.068

# Source: the Human Domainome abundance scans (Beltran et al. 2025)
